Results published in publication PMC5037138, “A Novel Class of Plant Type III Polyketide Synthase Involved in Orsellinic Acid Biosynthesis from Rhododendron dauricum” (Frontiers in Plant Science, 2016).

B1: CHS (R. dauricum chalcone synthase) (Rhododendron dauricum) (protein)
chain: MVTVEDVRKAQRAEGPATVMAIGTATPPNCVDQSTYPDFYFRITNSEHKAELKEKFQRMCDKSMIKKRYMYLTEEILKENPSVCEYMAPSLDARQDMVVVEVPKLGKEAATKAIKEWGQPKSKITHLVFCTTSGVDMPGADYQLTKLLGLRPSVKRLMMYQQGCFAGGTVLRLAKDLAENNKGARVLVVCSEITAVTFRGPSDTHLDSLVGQALFGDGAAAIIVGADPVPEVEKPLFELVSAAQTILPDSDGAIDGHLREVGLTFHLLKDVPGLISKNIEKALTEAFQPLGISDWNSIFWIAHPGGPAILDQVELKLSLKPEKLRATRHVLSEYGNMSSACVLFILDEMRRKSAEEGLKTTGEGLEWGVLFGFGPGLTVETVVLHSLCT
notes: full length, 389 residues (42,599 Da), N-terminal His6 tag kept (pQE80L), E. coli M15; ~45 kDa subunit; homodimer ~94 kDa
B2: ORS (orcinol synthase) (Rhododendron dauricum) (protein)
chain: MALVNHRENVKGRAQILAIGTANPKNCFRQVDYPDYYFRVTKSDHLIDLKAKFKRMCEKSMIEKRYMHVNEEILEQNPSMNHGGEKMVSSLDVRLDMEIMEIPKLAAEAATKAMDEWGQPKSRITHLVFHSTLGTVMPGVDYELIKLLGLNPSVKRFMLYHLGCYGGGTVLRLAKDLAENNPGSRVLVLCCEMMPSGFHGPPSLQHAHLDILTGHAIFGDGAGAVIVGCVDPSGGTNGVVERGVRRYEQPLFEIHSAYQTVLPDSKDAVGGRLREAGLIYYLSKRLSNDVSGKIDECCLAEAFSAAIKDNFEDWNSLFWIVHPAGRPILDKLDAKLGLNKEKLRASRNVLRDYGNMWSSSVLFVLDEMRKGSIAQRKTTTGEGFEWGVLLGFGPGVTVETVVLRSVPTAKLK
notes: full length, 412 residues (45,707 Da), N-terminal His6 tag kept (pQE80L), E. coli M15; ~48 kDa subunit; homodimer ~101 kDa

Experiments:
Experiment in all cases: HPLC product quantification, Hanes-Woolf
Format in all cases: biochemical, Rhododendron dauricum
[1] = substrate: CC(C)(COP(=O)(O)OP(=O)(O)OC[C@H]1O[C@@H](n2cnc3c(N)ncnc32)[C@H](O)[C@@H]1OP(=O)(O)O)[C@@H](O)C(=O)NCCC(=O)NCCSC(=O)/C=C/c1ccc(O)cc1; details: naringenin formation, 200 uM malonyl-CoA, pH 7.0, 30 C
[2] = substrate: CC(=O)SCCNC(=O)CCNC(=O)[C@H](O)C(C)(C)COP(=O)(O)OP(=O)(O)OC[C@H]1O[C@@H](n2cnc3c(N)ncnc32)[C@H](O)[C@@H]1OP(=O)(O)O; details: orcinol formation (major product), 200 uM malonyl-CoA, 100 mM potassium phosphate pH 7.0, 30 C, no OAC
Excerpt: (§1) HPLC product quantification, Hanes-Woolf on ORS (orcinol synthase)

[3] = substrate: CCCC(=O)SCCNC(=O)CCNC(=O)[C@H](O)C(C)(C)COP(=O)(O)OP(=O)(O)OC[C@H]1O[C@@H](n2cnc3c(N)ncnc32)[C@H](O)[C@@H]1OP(=O)(O)O; details: 4-hydroxy-6-propyl-2-pyrone formation, 200 uM malonyl-CoA, pH 7.0, 30 C
Excerpt: as §1

[4] = substrate: CCCCCC(=O)SCCNC(=O)CCNC(=O)[C@H](O)C(C)(C)COP(=O)(O)OP(=O)(O)OC[C@H]1O[C@@H](n2cnc3c(N)ncnc32)[C@H](O)[C@@H]1OP(=O)(O)O; details: 4-hydroxy-6-pentyl-2-pyrone formation, 200 uM malonyl-CoA, pH 7.0, 30 C
Excerpt: as §1

Row | Protein | Km [1] [µM] | kcat [1] [s⁻¹] | Km [2] [µM] | kcat [2] [s⁻¹] | Km [3] [µM] | kcat [3] [s⁻¹] | Km [4] [µM] | kcat [4] [s⁻¹]
1 | B1 | 8.15 | 0.0089 |  |  |  |  |  | 
2 | B2 |  |  | 9.98 | 0.0243 | 17.1 | 0.00675 | 26.4 | 0.00482
